Measurements published in IntAct's records for PubMed 7518772.

B1: Receptor-type tyrosine-protein phosphatase alpha (Mus musculus), P18052 (parent)
chain: MDSWFILVLFGSGLIHVSANNATTVSPSLGTTRLIKTSTTELAKEENKTSNSTSSVISLSVAPTFSPNLTLEPTYVTTVNSSHSDNGTRRAASTESGGTTISPNGSWLIENQFTDAITEPWEGNSSTAATTPETFPPADETPIIAVMVALSSLLVIVFIIIVLYMLRFKKYKQAGSHSNSFRLSNGRTEDVEPQSVPLLARSPSTNRKYPPLPVDKLEEEINRRMADDNKLFREEFNALPACPIQATCEAASKEENKEKNRYVNILPFLSLAVSKDAVKALNKTTPLLERRFIGKSNSRGCLSDDHSRVHLTPVEGVPDSDYINASFINGYQEKNKFIAAQGPKEETVNDFWRMIWEQNTATIVMVTNLKERKECKCAQYWPDQGCWTYGNVRVSVEDVTVLVDYTVRKFCIQQVGDVTNRKPQRLITQFHFTSWPDFGVPFTPIGMLKFLKKVKACNPQYAGAIVVHCSAGVGRTGTFVVIDAMLDMMHSERKVDVYGFVSRIRAQRCQMVQTDMQYVFIYQALLEHYLYGDTELEVTSLETHLQKIYNKIPGTSNNGLEEEFKKLTSIKIQNDKMRTGNLPANMKKNRVLQIIPYEFNRVIIPVKRGEENTDYVNASFIDGYRQKDSYIASQGPLLHTIEDFWRMIWEWKSCSIVMLTELEERGQEKCAQYWPSDGLVSYGDITVELKKEEECESYTVRDLLVTNTRENKSRQIRQFHFHGWPEVGIPSDGKGMINIIAAVQKQQQQSGNHPITVHCSAGAGRTGTFCALSTVLERVKAEGILDVFQTVKSLRLQRPHMVQTLEQYEFCYKVVQEYIDAFSDYANFK

Variants of: B1
Details: with src_mouse Src

| Variant | effect of a mutation on the interaction |
| --- | --- |
| Y825F | disrupting interaction |
